This is an account of results in publication PMC3439491, “Characterization of an AGAMOUS-like MADS Box Protein, a Probable Constituent of Flowering and Fruit Ripening Regulatory System in Banana”.

The target in series [1] is T1, MA-MADS5 full length (A) (Musa acuminata (AAA group, Cavendish …, UniProt E9NW24 1-243)). Description: EMSA; EMSA with 2 ug recombinant protein or 15 ug nuclear extract, buffer by reference to earlier work; circularization pre-incubation: 60 mM KCl, 8 mM HEPES pH 7.9. As to conditions: protein: recombinant, tags: 6xHis (pQE30), chain copies: 2, blunt. On the technique in general: Mobility shift assays separate free from complexed probe on a gel.
T1 sequence (E9NW24 entry or part of it): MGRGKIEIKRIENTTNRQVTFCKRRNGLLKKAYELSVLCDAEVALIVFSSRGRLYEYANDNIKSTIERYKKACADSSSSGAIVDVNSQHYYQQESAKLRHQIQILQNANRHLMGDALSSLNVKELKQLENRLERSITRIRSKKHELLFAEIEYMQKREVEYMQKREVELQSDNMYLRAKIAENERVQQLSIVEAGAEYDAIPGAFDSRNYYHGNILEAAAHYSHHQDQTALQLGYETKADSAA

Series [2] has as its target T1, MA-MADS5 full length (A). The series is described as follows: EMSA; supershifted by anti-MA-MADS5; EMSA with 2 ug recombinant protein or 15 ug nuclear extract, buffer by reference to earlier work; circularization pre-incubation: 60 mM KCl, 8 mM HEPES pH 7.9. The note with it: protein: recombinant; tags: 6xHis (pQE30); chain copies: 2; label: 32P 5' end; blunt.
Another series addresses MA-MADS5 F (K+C) (Musa acuminata (AAA group, Cavendish …, UniProt E9NW24 74-243)). Description: EMSA; EMSA with 2 ug recombinant protein or 15 ug nuclear extract, buffer by reference to earlier work; circularization pre-incubation: 60 mM KCl, 8 mM HEPES pH 7.9. The note with it: protein: recombinant; tags: 6xHis (pQE30); label: 32P; blunt.
The target of the next series is MA-MADS5 D (MADS+I+K) (Musa acuminata (AAA group, Cavendish …, UniProt E9NW24 1-183)). Described as above. The note with it: protein: recombinant; tags: 6xHis (pQE30); chain copies: 2; label: 32P; blunt.
MA-MADS5 D (MADS+I+K) (Musa acuminata, sequence (E9NW24 entry or part of it): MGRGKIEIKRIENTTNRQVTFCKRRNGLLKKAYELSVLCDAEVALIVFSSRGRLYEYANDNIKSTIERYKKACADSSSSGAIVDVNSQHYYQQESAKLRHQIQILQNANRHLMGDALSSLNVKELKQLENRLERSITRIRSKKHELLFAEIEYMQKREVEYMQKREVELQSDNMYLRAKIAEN
In a further series the target is MA-MADS5 C (MADS+I) (Musa acuminata (AAA group, Cavendish …, UniProt E9NW24 1-73)). Described as above. As to conditions: protein: recombinant; tags: 6xHis (pQE30); chain copies: 2; label: 32P; blunt.
MA-MADS5 C (MADS+I) (Musa acuminata, sequence (E9NW24 entry or part of it): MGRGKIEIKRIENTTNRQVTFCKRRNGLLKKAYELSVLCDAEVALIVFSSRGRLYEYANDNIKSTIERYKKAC
In a further series the target is MA-MADS5 E (I+K+C) (Musa acuminata (AAA group, Cavendish …, UniProt E9NW24 61-243)). The description is as above. As to conditions: protein: recombinant; tags: 6xHis (pQE30); chain copies: 2; label: 32P; blunt.
MA-MADS5 E (I+K+C) (Musa acuminata, sequence (E9NW24 entry or part of it): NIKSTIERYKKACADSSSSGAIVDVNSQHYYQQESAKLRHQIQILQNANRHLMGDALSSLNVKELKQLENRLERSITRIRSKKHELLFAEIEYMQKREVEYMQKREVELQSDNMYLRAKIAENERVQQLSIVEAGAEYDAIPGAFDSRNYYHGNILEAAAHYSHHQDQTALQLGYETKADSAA
Another series deals with MA-MADS5 G (C-terminal) (Musa acuminata (AAA group, Cavendish …, UniProt E9NW24 184-243)). The description is as above. The note with it: protein: recombinant; tags: 6xHis (pQE30); label: 32P; blunt.
MA-MADS5 G (C-terminal) (Musa acuminata, sequence (E9NW24 entry or part of it): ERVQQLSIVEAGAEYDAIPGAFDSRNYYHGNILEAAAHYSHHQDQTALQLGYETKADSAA
Series [3] concerns the target MA-MADS5 C (MADS+I);MA-MADS5 D (MADS+I+K) (Musa acuminata (AAA group, Cavendish …, UniProt E9NW24;E9NW24 1-73;1-183, |)). The series is described as follows: EMSA; intermediate-mobility dimer; EMSA with 2 ug recombinant protein or 15 ug nuclear extract, buffer by reference to earlier work; circularization pre-incubation: 60 mM KCl, 8 mM HEPES pH 7.9. As to conditions: protein: recombinant;recombinant; tags: 6xHis (pQE30);6xHis (pQE30); copies: 1;1; label: 32P; blunt.

Series [4] concerns the target MA-MADS5 full length (A);MA-MADS5 C (MADS+I) (Musa acuminata (AAA group, Cavendish …, UniProt E9NW24;E9NW24 1-243;1-73, |)). Described as above. The note with it: protein: recombinant;recombinant; tags: 6xHis (pQE30);6xHis (pQE30); copies: 1;1; label: 32P; blunt.
The target of series [5] is MA-MADS5 full length (A);MA-MADS5 D (MADS+I+K) (Musa acuminata (AAA group, Cavendish …, UniProt E9NW24;E9NW24 1-243;1-183, |)). The series is described as above. The note with it: protein: recombinant;recombinant; tags: 6xHis (pQE30);6xHis (pQE30); copies: 1;1; label: 32P; blunt.

MA-MADS5 F (K+C) (Musa acuminata, sequence (E9NW24 entry or part of it): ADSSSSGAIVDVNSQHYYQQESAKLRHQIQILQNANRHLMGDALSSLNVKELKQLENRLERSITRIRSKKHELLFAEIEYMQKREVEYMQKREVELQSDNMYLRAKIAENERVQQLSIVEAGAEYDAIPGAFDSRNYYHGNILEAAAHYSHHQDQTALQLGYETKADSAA

B1: CArG motif 5 (MA-ACO1) (dsDNA)
DNA 1: GAGGTTGGCAATTTGTCACTAC
DNA 2: GTAGTGACAAATTGCCAACCTC
With B1, in the series with MA-MADS5 full length (A) [1] (label: 32P 5' end), the binding result is “binds”.

B2: CArG motif 7 (MA-EXP) (dsDNA)
DNA 1: AAGCACGCATATTTGTGCTGCA
DNA 2: TGCAGCACAAATATGCGTGCTT
With B2, in the series with MA-MADS5 full length (A) [1] (label: 32P 5' end), the binding result is listed as “binds”.

B3: CArG motif 9 (MA-LEC) (dsDNA)
DNA 1: ATAAATTCTTAAAAGATCCTAG
DNA 2: CTAGGATCTTTTAAGAATTTAT
For the molecule B3, the binding result with MA-MADS5 full length (A) [1] (label: 32P 5' end) is listed as “no binding”.

B4: CArG motif 3 (MA-ACS1) (dsDNA)
DNA 1: GGGTCAACTATAATTGCCTTCC
DNA 2: GGAAGGCAATTATAGTTGACCC
For the molecule B4, the binding result with MA-MADS5 full length (A) [1] (label: 32P 5' end) is “no binding”.

B5: CArG motif 2 (MA-ACS1) (dsDNA)
DNA 1: ACACCCCATAAATTTGATCTTC
DNA 2: GAAGATCAAATTTATGGGGTGT
As to B5, the binding result with MA-MADS5 full length (A) [1] (label: 32P 5' end) is on record as “binds”.

B6: CArG motif 8 (MA-LEC) (dsDNA)
DNA 1: CTGGTATCTATTTATGAAATCT
DNA 2: AGATTTCATAAATAGATACCAG
On to B6, for which the binding result with MA-MADS5 full length (A) [1] (label: 32P 5' end) was “binds”.

B7: CArG motif 6 (MA-ACO1) (dsDNA)
DNA 1: GAACGCCTATAAATTGCCTGGT
DNA 2: ACCAGGCAATTTATAGGCGTTC
On to B7, for which, in the series with MA-MADS5 full length (A) [1] (label: 32P 5' end), the binding result is on record as “no binding”.

B8: CArG motif 1 (MA-SPS) (dsDNA)
DNA 1: TTGGATTCTTATATGTCACGAA
DNA 2: TTCGTGACATATAAGAATCCAA
For the molecule B8, in the series with MA-MADS5 full length (A) [2], the binding result is recorded as “binds”.

B9: AGAMOUS element 1 CArG-box (A probe) (dsDNA)
DNA 1: ACTGAAGCTTTCCATTAATGGGAATGACGCACAATCCCAC
DNA 2: GTGGGATTGTGCGTCATTCCCATTAATGGAAAGCTTCAGT
Consider B9, for which the binding result is recorded as “no binding” in the series with MA-MADS5 F (K+C); “binds” with MA-MADS5 D (MADS+I+K); “binds” in the series with MA-MADS5 full length (A) [1] (label: 32P); “binds” in the series with MA-MADS5 C (MADS+I); “no binding” in the series with MA-MADS5 E (I+K+C); “no binding” with MA-MADS5 G (C-terminal). Besides, the binding result in series [3], in series [4] and in series [5] was “binds” each time.

B10: AGAMOUS element m1 (Am probe, CArGm) (dsDNA)
DNA 1: ACTGAAGCTTTCCATGCATGGGAATGACGCACAATCCCAC
DNA 2: GTGGGATTGTGCGTCATTCCCATGCATGGAAAGCTTCAGT
Consider B10, for which the binding result in the series with MA-MADS5 full length (A) [1] (label: 32P or unlabeled) is reported as “no binding”.

B11: CArG motif 4 (MA-ACS1) (dsDNA)
DNA 1: GATCATGCTTTTATTGTTTCTT
DNA 2: AAGAAACAATAAAAGCATGATC
For B11, the binding result with MA-MADS5 full length (A) [1] (label: 32P 5' end) was “no binding”.
